Our source for the abundance fitness values is the Human Domainome abundance scans (Beltran et al. 2025).

± gives the uncertainty stated by the source.

The chains are these.
B1: Cold shock protein CspB, residues 1 to 66; numbered along this chain, P41016 (parent)
chain: MQRGKVKWFNNEKGYGFIEVEGGSDVFVHFTAIQGEGFKTLEEGQEVSFEIVQGNRGPQAANVVKL

In the series the parent is B1. Nature of the series: abundance fitness (aPCA) (normalised: wild type 0, dead -1); higher = more abundant; growth selection in yeast, the domain comes from the species named. Conditions: Bacillus caldolyticus.
Regarding T40P, the abundance fitness is -0.227 ± 0.036.

For V26Y, the abundance fitness was -0.074 ± 0.054. Next, E46F: -0.025 ± 0.044; E46D: -0.153 ± 0.084. Take E46M: the abundance fitness was 0.006 ± 0.048. In the case of E46L it was 0.014 ± 0.03; in that of E46K, -0.004 ± 0.055; in that of E46R, -0.014 ± 0.029. Consider E46Q, for which the abundance fitness is -0.012 ± 0.051. As for E46H, the abundance fitness is -0.043 ± 0.059. As for E46I, the abundance fitness is -0.071 ± 0.058. As to E46A, the abundance fitness was -0.018 ± 0.052. For the variant E46C, the abundance fitness was -0.046 ± 0.053.

Consider E46S, for which the abundance fitness was determined as 0.015 ± 0.034. As to E46T, the abundance fitness was -0.053 ± 0.048. As for E46P, the abundance fitness was -0.023 ± 0.049.

Regarding E46G, the abundance fitness is -0.017 ± 0.04. Turning to L41I, the abundance fitness was 0.003 ± 0.064. In the case of L41A, the abundance fitness was -0.111 ± 0.041.

In the case of L41V, the abundance fitness is -0.042 ± 0.033. With L41P, the abundance fitness is -0.46 ± 0.044.

For L41W, the abundance fitness is -0.359 ± 0.033. As to L41T, the abundance fitness is -0.299 ± 0.037. Next, L41D: -0.554 ± 0.069; L41F: -0.199 ± 0.047; L41R: -0.625 ± 0.03. Turning to L41H, the abundance fitness is -0.616 ± 0.063. On to L41K, for which the abundance fitness is -0.721 ± 0.047. For the variant L41E, the abundance fitness was -0.482 ± 0.044.

For L41S, the abundance fitness is -0.433 ± 0.039. Turning to L41M, the abundance fitness is -0.01 ± 0.04. L41G: the abundance fitness was -0.355 ± 0.034.

Consider L41C, for which the abundance fitness is -0.121 ± 0.054.

Consider L41N, for which the abundance fitness is -0.515 ± 0.062.

On to L41Y, for which the abundance fitness was -0.368 ± 0.061. In the case of V28R, the abundance fitness was -0.993 ± 0.05. Turning to V28T, the abundance fitness is -0.05 ± 0.047. For the variant V28Y, the abundance fitness is -0.27 ± 0.061. Regarding V28P, the abundance fitness is -0.693 ± 0.088. For the variant V28S, the abundance fitness was -0.355 ± 0.03. Regarding V28N, the abundance fitness was -0.999 ± 0.34. In the case of V28Q, the abundance fitness is -0.901 ± 0.084. In the case of V28M, the abundance fitness is -0.153 ± 0.055.

On to V28W, for which the abundance fitness was -0.675 ± 0.036. Take V28F: the abundance fitness is -0.062 ± 0.058. Turning to V28L, the abundance fitness was -0.107 ± 0.029. With V28I, the abundance fitness is -0.048 ± 0.05. For the variant V28A, the abundance fitness is -0.1 ± 0.045. For the variant V28C, the abundance fitness is 0.017 ± 0.048. Regarding V28E, the abundance fitness was -1.1 ± 0.15. As to V28G, the abundance fitness was -0.638 ± 0.041. Consider V28D, for which the abundance fitness is -0.912 ± 0.14. In the case of V28H it was -1.04 ± 0.21. For F38L, the abundance fitness is -0.086 ± 0.027.

For F38Q, the abundance fitness is -0.005 ± 0.064. Turning to F38R, the abundance fitness was -0.041 ± 0.031.

For F38N, the abundance fitness amounted to 0.004 ± 0.14. For the variant F38E, the abundance fitness is -0.078 ± 0.043.

With F38W, the abundance fitness stood at 0.024 ± 0.046. For the variant F38Y, the abundance fitness is -0.009 ± 0.057. For the variant F38H, the abundance fitness was -0.132 ± 0.067.

As for F38S, the abundance fitness is -0.057 ± 0.037. Next, F38M: -0.075 ± 0.046; F38D: -0.12 ± 0.054; F38V: -0.044 ± 0.03. In the case of F38K, the abundance fitness is -0.049 ± 0.051.

Turning to F38T, the abundance fitness is -0.119 ± 0.064. In the case of F38G it was -0.048 ± 0.032; in that of F38I, -0.041 ± 0.067. F38C: the abundance fitness was -0.103 ± 0.058.

On to I33R, for which the abundance fitness is -0.484 ± 0.039. In the case of I33E, the abundance fitness is -0.477 ± 0.041. Consider I33C, for which the abundance fitness is -0.127 ± 0.052.

Regarding I33L, the abundance fitness is -0.082 ± 0.03. For the variant I33M, the abundance fitness is -0.144 ± 0.04. Turning to I33W, the abundance fitness was -0.462 ± 0.052.

Consider I33V, for which the abundance fitness is -0.024 ± 0.033.

I33Y: the abundance fitness is -0.527 ± 0.069.

I33K: the abundance fitness is -0.456 ± 0.056.

As for I33Q, the abundance fitness was -0.381 ± 0.04. Next, I33A: -0.311 ± 0.038; I33S: -0.422 ± 0.031; I33G: -0.41 ± 0.033. Turning to I33F, the abundance fitness is -0.111 ± 0.046. With I33D, the abundance fitness is -0.369 ± 0.057.

Regarding G35D, the abundance fitness was -0.004 ± 0.076.

G35R: the abundance fitness was -0.111 ± 0.033.

Turning to G35S, the abundance fitness was -0.035 ± 0.039. Next, G35W: -0.134 ± 0.044.

Take G35F: the abundance fitness was -0.067 ± 0.059. For G35L, the abundance fitness was -0.127 ± 0.025. Next, G35K: -0.112 ± 0.056.

On to G35T, for which the abundance fitness was -0.084 ± 0.054. Next, G35V: -0.033 ± 0.037; G35N: -0.06 ± 0.11; G35Y: -0.068 ± 0.074. In the case of G35I, the abundance fitness was -0.108 ± 0.061. In the case of G35E it was -0.001 ± 0.038. For the variant G35Q, the abundance fitness came to 0.001 ± 0.045. Take G35P: the abundance fitness is -0.172 ± 0.045. In the case of G35M, the abundance fitness was found to be 0.002 ± 0.035.

As for G35C, the abundance fitness was determined as 0.02 ± 0.069. Take Q45A: the abundance fitness was 0.021 ± 0.042.

As for Q45G, the abundance fitness was 0.032 ± 0.042. As to Q45I, the abundance fitness was -0.09 ± 0.075.

Turning to Q45N, the abundance fitness was -0.005 ± 0.082.

On to Q45C, for which the abundance fitness was -0.031 ± 0.07. In the case of Q45R, the abundance fitness was -0.039 ± 0.035. In the case of Q45F, the abundance fitness is -0.097 ± 0.082. For Q45L, the abundance fitness was -0.021 ± 0.03. In the case of Q45T, the abundance fitness was -0.038 ± 0.05. In the case of Q45V, the abundance fitness is -0.063 ± 0.039. As for Q45P, the abundance fitness was -0.655 ± 0.051. On to Q45Y, for which the abundance fitness was -0.072 ± 0.12. On to Q45W, for which the abundance fitness is -0.023 ± 0.034. Regarding Q45S, the abundance fitness is -0.029 ± 0.038. With Q45E, the abundance fitness is -0.003 ± 0.047. As for Q45M, the abundance fitness was -0.032 ± 0.057. As to Q45H, the abundance fitness is -0.036 ± 0.077. Next, Q45D: -0.104 ± 0.085; K39D: -0.148 ± 0.068.

Take K39S: the abundance fitness is -0.072 ± 0.03. Turning to K39G, the abundance fitness was -0.154 ± 0.045. In the case of K39I, the abundance fitness is -0.133 ± 0.064.

Consider K39R, for which the abundance fitness was -0.003 ± 0.037. Take K39N: the abundance fitness is -0.077 ± 0.058. Take K39H: the abundance fitness was -0.08 ± 0.064. In the case of K39V it was -0.092 ± 0.038. For K39P, the abundance fitness is -0.149 ± 0.035.

As to K39Y, the abundance fitness is -0.148 ± 0.062. As for K39E, the abundance fitness is -0.114 ± 0.06.

For the variant K39L, the abundance fitness is -0.059 ± 0.034. On to K39A, for which the abundance fitness was -0.013 ± 0.049. Take K39M: the abundance fitness is -0.137 ± 0.038. Next, K39Q: -0.071 ± 0.044.

Turning to K39T, the abundance fitness was -0.103 ± 0.04.

For K39C, the abundance fitness is -0.08 ± 0.051. For K39W, the abundance fitness was -0.194 ± 0.048.

As to Q34R, the abundance fitness worked out at 0.001 ± 0.034.

As for Q34C, the abundance fitness is -0.071 ± 0.066. Next, Q34K: 0.01 ± 0.053; Q34D: 0.079 ± 0.11; Q34W: -0.049 ± 0.043. Regarding Q34P, the abundance fitness is -0.062 ± 0.04. With Q34Y, the abundance fitness was -0.073 ± 0.082. For Q34M, the abundance fitness turned out to be 0.006 ± 0.042.

As to Q34N, the abundance fitness was 0.053 ± 0.11. Consider Q34H, for which the abundance fitness was -0.123 ± 0.15.

On to Q34V, for which the abundance fitness is 0.048 ± 0.045.

On to Q34G, for which the abundance fitness was -0.005 ± 0.041. Take Q34I: the abundance fitness was -0.169 ± 0.087. For the variant Q34T, the abundance fitness is -0.008 ± 0.051. Next, Q34L: -0.02 ± 0.031; Q34S: -0.003 ± 0.047; Q34F: 0.052 ± 0.14. Consider H29A, for which the abundance fitness is -0.532 ± 0.39.

For the variant H29R, the abundance fitness is -0.281 ± 0.11. On to H29N, for which the abundance fitness is -0.228 ± 0.12. For H29I, the abundance fitness is -0.538 ± 0.16. On to H29K, for which the abundance fitness was -0.197 ± 0.13. Next, H29S: -0.345 ± 0.14; H29V: -0.506 ± 0.28. Next, H29M: -0.274 ± 0.13. On to H29L, for which the abundance fitness is -0.48 ± 0.12.

As for H29Y, the abundance fitness was -0.149 ± 0.052. Turning to H29T, the abundance fitness was -0.28 ± 0.12.

Take H29Q: the abundance fitness is -0.174 ± 0.15.
